Experiment: soluble on expression in E. coli; label from the status in PepcDB or PDB records

Question: With “MKEFYLTVEQIGDSIFERYIDSNGRERTREVEYKPSLFAHCPESQATKYFDIYGKPCTRKLFANMRDASQWIKRMEDIGLEALGMDDFKLAYLSDTYNYEIKYDHTKIRVANFDIEVTSPDGFPEPSQAKHPIDAITHYDSIDDRFYVFDLLNSPYGNVEEWSIEIAAKLQEQGGDEVPSEIIDKIIYMPFDNEKELLMEYLNFWQQKTPVILTGWNVESFDIPYVYNRIKNIFGESTAKRLSPHRKTRVKVIENMYGSREIITLFGISVLDYIDLYKKFSFTNQPSYSLDYISEFELNVGKLKYDGPISKLRESNHQRYISYNIIDVYRVLQIDAKRQFINLSLDMGYYAKIQIQSVFSPIKTWDAIIFNSLKEQNKVIPQGRSHPVQPYPGAFVKEPIPNRYKYVMSFDLTSLYPSIIRQVNISPETIAGTFKVAPLHDYINAVAERPSDVYSCSPNGMMYYKDRDGVVPTEITKVFNQRKEHKGYMLAAQRNGEIIKEALHNPNLSVDEPLDVDYRFDFSDEIKEKIKKLSAKSLNEMLFRAQRTEVAGMTAQINRKALINGLAGALGNVWFRYYDLRNATAITTFGQMALQWIERKVNEYLNEVCGTEGEAFVLYGDTDSIYVSADKIIDKVGESKFRDTNHWVDFLDKFARERMEPAIDRGFREMCEYMNNKQHLMFMDREAIAGPPLGSKGIGGFWTGKKRYALNVWDMEGTRYAEPKLKIMGLETQKSSTPKAVQKALKECIRRMLQEGEESLQEYFKEFEKEFRQLNYISIASVSSANNIAKYDVGGFPGPKCPFHIRGILTYNRAIKGNIDAPQVVEGEKVYVLPLREGNPFGDKCIAWPSGTEITDLIKDDVLHWMDYTVLLEKTFIKPLEGFTSAAKLDYEKKASLFDMFDFHHHHHH” as the sequence, how does the “soluble on expression in E. coli” value read?
Answer: soluble

Question: For “MGLIDVLKSFKSPSGREIRILLLGLDNAGKTTILKQLSSEDVQHVTPTKGFNVKTVAAMGDIRLNVWDIGGQRSIRPYWSNYYENIDTLIFVIDSNDKKRFDEMNIELGELLDEEKLRKVPVLIFANKQDLVTAASSEEITRKLNLDLLRDRTWHIQACSALKNEGINDGITWVASNLKPASKK”, which “soluble on expression in E. coli” value is on record?
Answer: not soluble

Question: For “MSLSRSFDTAPLGGRLNLTVADAEVFRNFLPVGQTVKGSLNAAVTLGGSIADPHLGGSINGDKLYYRNQTQGIILDNGSLRSHIAGRKWVIDSLKFRHEGTAELSGTVGMENSGPDVDIGAVFDKYRILSRPNRRLTVSGNTRLRYSPQKGISVTGMIKTDQGLFGSQKSSMPSVGDDVVVLGEVKKEAAAPLPVNMNLTLDLNDGIRFAGYGADVTIGGKLTLTAQSGGSVRGVGTVRVIKGRYKAYGQDLDITKGTVSFVGPLNDPNLNIRAERRLSPVGAGVEILGSLNSPRITLTANEPMSEKDKLSWLILNRAGSGSSGDNAALSAAAGALLAGQINDRIGLVDDLGFTSKRSRNAQTGELNPAEQVLTVGKQLTGKLYIGYEYSISSAEQSVKLIYRLTRAIQAVARIGSRSSGGELTYTIRFDRFSGSDEGHHHHHH”, which “soluble on expression in E. coli” value is on record?
Answer: not soluble

Question: Which “soluble on expression in E. coli” value does the source give for “MGSDKIHHHHHHMNQDRNKLLSKIAYLYYIENLNQSQIAAKLGIYRTSISRMLTEARNVGIVKIEIENFDTNMFKLENYVKEKYSLESLEIIPNEFDDTPTILSERISQVAAGVLRNLIDDNMKIGFSWGKSLSNLVDLIHSKSVRNVHFYPLAGGPSHIHAKYHVNTLIYEMSRKFHGECTFMNATIVQENKLLADGILQSRYFENLKNSWKDLDIAVVGIGDFSNKGKHQWLDMLTEDDFKELTKVKTVGEICCRFFDSKGKEVYENLQERTIAISLEDLKNIPQSLAVAYGDTKVSSILSVLRANLVNHLITDKNTILKVLEEDGDLTFREILGE” here?
Answer: not soluble

Question: For “MERLHLSWEDLLRLVRRLAEALSGEPFDLVLGVARGGLIPTALLAQALGARNILTAAVMFYEGEEALPEPVFLQFPPDVLLFGKRVLVVDDVWDSGRTAFAVKARVRRAGGVPVVATLHFKPGRNRVPDRPDFYAEETAAWVVYPWALEAWPKG”, which “soluble on expression in E. coli” value is on record?
Answer: soluble

Question: With “KELWKLRKLRNHFSIQEEAELLVHSDSVGKGKVFCEKVAEESGVLAENPGFDRWQNSINPAHSDAEILDMYDSMVVSQQDKLATKVVSQHATES” as the sequence, how does the “soluble on expression in E. coli” value read?
Answer: not soluble

Question: With “MDSHCRVRPAGPAVPADCDPPRITHAALAARLGDARLLTLYDQATWSEGPAWWEAQRTLVWSDLVGRRVLGWREDGTVDVLLDATAFTNGNAVDAQQRLVHCEHGRRAITRSDADGQAHLLVGRYAGKRLNSPNDLIVARDGAIWFTDPPFGLRKPSQGCPADPELAHHSVYRLPPDGSPLQRMADLDHPNGLAFSPDEQTLYVSQTPEQGHGSVEITAFAWRDGALHDRRHFASVPDGLPDGFCVDRGGWLWSSSGTGVCVFDSDGQLLGHIPTPGTASNCTFDQAQQRLFITGGPCLWMLPLP” as the sequence, how does the “soluble on expression in E. coli” value read?
Answer: soluble

Question: For “MGSDKIHHHHHHMKQSEQEEPLTGGNVSDVSRIGETVRREQKPESLRVHRVLQHLEQKGFEGSPRYLGIDPQGREILSFIEGEAGNYPLQPYMQSDRVLEETARLLRSYHEAVADFPIPTDWQPLDGTPEPLELICHNDFAVYNVIFQNERPVGIIDFEVAAPGPRIWDIAYTMYTFVPLSRHQMTEDGEPAHYNPVNDQERIRRRVLLFLSAYGKAELKDEMYETVLLRVEALIKTIHRRAAEGDDAFQRMIDDGHVTHYEQEIDFLKREGADWFR”, which “soluble on expression in E. coli” value is on record?
Answer: not soluble

Question: With “MSLNRRELLERISEYQFACIELNLYLDNNPRDKKALDSYNRYCDKFTQAVCDYESKYGALTNFGYESSEYPWSWISEPWPWDKSFYK” as the sequence, how does the “soluble on expression in E. coli” value read?
Answer: soluble

Question: With “MGSDKIHHHHHHMEVAAVDSLEALYKMVAKLYRRLSASARKRLLEGVELAAEKGDPALAYHRLSTLARDYYGDSLPYASDGYYKTYKHTRCVGLPEPTKVSGVDVLEAIRRRRSRRSFSRRPLTLTEVSTILFHVAGITGLAWWGGPKRPYPSAGALQPVEAYLVVERVEGLKPGLYHYNPSGHCLEMLREGKLLGRLADVSLGQDHVAEAAAALVLTAVYTRTGSKYGHRSYRYVHWDTGFAGENVYLVCEALGLATVAVGAFYDDEMCGFLEIDCPWEMPMLVFPVGARG” as the sequence, how does the “soluble on expression in E. coli” value read?
Answer: not soluble

Question: For “GRGSEHLTIGFKVENAHDRILKTIKTHKLKNYIKESVNFLNSGLTKTNYLGSSNDNIELVDFQNIMFYGDAEVGDNQQPFTFILDTGSANLWVPSVKCTTAGCLTKHLYDSSKSRTYEKDGTKVEMNYVSGTVSGFFSKDLVTVGNLSLPYKFIEVIDTNGFEPTYTASTFDGILGLGWKDLSIGSVDPIVVELKNQNKIENALFTFYLPVHDKHTGFLTIGGIEERFYEGPLTYEKLNHDLYWQITLDAHVGNIMLEKANCIVDSGTSAITVPTDFLNKMLQNLDVIKVPFLPFYVTLCNNSKLPTFEFTSENGKYTLEPEYYLQHIEDVGPGLCMLNIIGLDFPVPTFILGDPFMRKYFTVFDYDNHSVGIALAKKNL”, which “soluble on expression in E. coli” value is on record?
Answer: soluble

Question: With “MLKDQDRIFTNLYGLKDKSLKGVMARGHWDGTKQIIEKGRDWIINEMKASGLRGRGGAGFPTGLKWSFMPKENDGRPHYLVVNADESEPGTCKDREILRNDPHTLIEGCVIAGFAMGAHTAYIYVRGEYMREREALQAAIDECYDAGLLGKNNKNGWDYDIYVHHGAGAYICGEETALLESLEGKKGQPRLKPPFPANMGLYGCPTTVNNVESIAVAPTILRRGASWFSSIGRPNNVGTKLFMVSGHVERPCTFEDALGLSFRELIEHHCGGIRGGWDNLLGVIPGGASCPIVRGEDMKDAIMDFDGMREVKSSFGTGGMIVMDKSTDVIKAIARIAAFFKHESCGQCTPCREGTGWMWRVLERMVKGNAQKREIDMLFEVTKQIEGHTICALGDAAAWPVQALIRNFRPEIEKRIDQYTYRAMDDGAVLEAAEAAALEHHHHHH” as the sequence, how does the “soluble on expression in E. coli” value read?
Answer: not soluble

Question: With “MKLKNTLLASALLSAMAFSVNAATELTPEQAAAVKPFDRVVVTGRFNAIGEAVKAVSRRADKEGAASFYVVDTSDFGNSGNWRVVADLYKADAEKAEETSNRVINGVVELPKDQAVLIEPFDTVTVQGFYRSQPEVNDAITKAAKAKGAYSFYIVRQIDANQGGNQRITAFIYKKDAKKRIVQSPDVIPADSEAGRAALAAGGEAAKKVEIPGVATTASPSSEVGRFFETQSSKGGRYTVTLPDGTKVEELNKATAAMMVPFDSIKFSGNYGNMTEVSYQVAKRAAKKGAKYYHITRQWQERGNNLTVSADLYKLEHHHHHH” as the sequence, how does the “soluble on expression in E. coli” value read?
Answer: not soluble

Reference: the DeepSol protein solubility set
